B1: bNAb 8ANC195 Fab (for SPR) (Fab, V domains shown)
VH: QIHLVQSGTEVKKPGSSVTVSCKAYGVNTFGLYAVNWVRQAPGQSLEYIGQIWRWKSSASHHFRGRVLISAVDLTGSSPPISSLEIKDLTSDDTAVYFCTTTSTYDKWSGLHHDGVMAFSSWGQGTLISVSA
VL: DIQMTQSPSTLSASIGDTVRISCRASQSITGNWVAWYQQRPGKAPRLLIYRGAALLGGVPSRFSGSAAGTDFTLTIGNLQAEDFGTFYCQQYDTYPGTFGQGTKVEVK
B2: bNAb F6 Fab (for SPR) (Fab, V domains shown)
VH: QVQLQQWGTGLLKPSETLSLTCAVYGVSLRGYYWTWIRQSPKKGLEWIGEIDEIGRTKYSQSLRSRATLSIDTSKKQFSLRLTSVTAADMATYYCARWRLMMVDEVTRHGMDVWSQGTMVTVSS
VL: DIVMTQSPLSLSVAPGEAASISCRSTQSLLNRNGDNYLEWYLRRPGRSPQLLIYLGSERALGVPDRFSGSGSGRDFTLKISRVEAQDVGTYYCLQTRQGAFTFGQGTKLEIK

Tests used:
Assay in all cases: SPR
Settings in all cases: both partners purified
[1] = target: T1, X18 SOSIP-His (CRF01_AE Env trimer in SOSIP design) (HIV-1 BJOX018000.e12 (X18, CRF01_AE), UniProt A0A0E3EAY4, stabilised)
T1 construct: copies: 3 + 3

[2] = target: T2, X16 SOSIP-His (CRF07_BC Env trimer in SOSIP design) (HIV-1 BJOX016000.e15 (X16, CRF07_BC), UniProt A0A0E3EAD6, stabilised)
T2 construct: copies: 3 + 3

[3] = target: T3, BG505 SOSIP-His (subtype A Env trimer) (HIV-1 BG505 (subtype A), UniProt Q2N0S6, stabilised)
T3 construct: copies: 3 + 3

[4] = target: T4, Q769 UFO (subtype A Env of Q769_d22) (HIV-1 Q769_d22 (subtype A), UniProt Q8JDJ1, stabilised)
T4 construct: source: FreeStyle 293F, transient transfection (PEI), purified (GNL resin, SEC)

[5] = target: T5, X18 UFO (CRF01_AE Env), wild type, for SPR (HIV-1 BJOX018000.e12 (X18, CRF01_AE), stabilised)
T5 construct: source: FreeStyle 293F, transient transfection (PEI), purified (GNL resin, SEC)

Binder	binding result [1]	binding result [2]	binding result [3]	binding result [4]	Kd [5] [nM]
B1	binds	binds	binds	–	–
B2	–	–	–	binds	0.041

— publication PMC10403546 (Nature Communications, 2023)
